Measurements from PMC6327041 (2019).
Where no end group is shown, it is not given here. [ ]: non-standard residue; d: D form. pT = C[C@@H](OP(=O)(O)O)[C@H](N)C(=O)O

B1: H3K9ac 10mer peptide (peptide)
peptide: ARTKQTARKS
modifications: acetyl-lysine at 9 (K9ac)
B2: GST-PHD1 (S287-K347) of KDM5A (domain or fragment)
chain: SVNFVDLYVCMFCGRGNNEDKLLLCDGCDDSYHTFCLIPPLPDVPKGDWRCPKCVAEECSK
B3: unmodified H3 10mer effector peptide (H3 Ala1-Ser10) (peptide)
peptide: ARTKQTARKS
B4: H3 10mer peptide phosphorylated at T6 (peptide)
peptide: ARTKQ[pT]ARKS
B5: H3 10mer peptide methylated at R8 (peptide)
peptide: ARTKQTARKS
modifications: also: methylated Arg8, degree of methylation not given here
B6: H3 10mer peptide methylated at R2 (peptide)
peptide: ARTKQTARKS
modifications: also: methylated Arg2, degree of methylation not given here
B7: H3K9me3 10mer peptide (peptide)
peptide: ARTKQTARKS
modifications: trimethyl-lysine at 9 (K9me3)

Assays:
[1] = biological target: B2; assay: FP
[2] = biological target: H3 10mer peptide mutated at R2 (UniProt P68431 2-11); assay: FP; H3R2A
[3] = biological target: B2; assay: FP; H3T6ph
[4] = biological target: B2; assay: FP; H3R8me2s (symmetric dimethyl)
[5] = biological target: B2; assay: FP; H3R8me2a (asymmetric dimethyl)
[6] = biological target: B2; assay: FP; H3R2me2s (symmetric dimethyl)
[7] = biological target: B2; assay: FP; H3R2me2a (asymmetric dimethyl)

**Q.** B1 was tested. Which Kd [1] did it give?
**A.** Its Kd is 1010 nM.

**Q.** With B2 as the binder, how does the Kd [2] read?
**A.** Its Kd is 205000 nM.

**Q.** For B3, which Kd [1] is on record?
**A.** Its Kd is 996 nM.

**Q.** For B4, which Kd [3] is on record?
**A.** Its Kd is 72000 nM.

**Q.** Which results are given for B5?
**A.** Kd [4]: 2010 nM; Kd [5]: 1840 nM

**Q.** Which Kd [6] does the source give for B6 here?
**A.** Its Kd is 5310 nM.

**Q.** What about the Kd [7] of the same binder?
**A.** The Kd was 5410 nM.

**Q.** With B7 as the binder, how does the Kd [1] read?
**A.** The Kd was 740 nM.
